We go through 4 molecules from PMC11467669 (The Journal of Biological Chemistry, 2024).

Series [1] has as its target mono-ubiquitin with an N-terminal fluorescein moiety (UniProt P0CG47 1-76, fluorescein on the N-terminus). The series is described as follows: fluorescence polarisation. On the technique in general: Polarisation of emitted light reports the rotation of a fluorescent probe.
The series “SEC-MALLS” deals with the molecule itself. The series is described as follows: SEC-MALLS.

B1: full-length USP8 (a.a. 7-1110), non-phosphorylated (enzyme)
chain: VPKELYLSSSLKDLNKKTEVKPEKISTKSYVHSALKIFKTAEECRLDRDEERAYVLYMKYVTVYNLIKKRPDFKQQQDYFHSILGPGNIKKAVEEAERLSESLKLRYEEAEVRKKLEEKDRQEEAQRLQQKRQETGREDGGTLAKGSLENVLDSKDKTQKSNGEKNEKCETKEKGAITAKELYTMMTDKNISLIIMDARRMQDYQDSCILHSLSVPEEAISPGVTASWIEAHLPDDSKDTWKKRGNVEYVVLLDWFSSAKDLQIGTTLRSLKDALFKWESKTVLRNEPLVLEGGYENWLLCYPQYTTNAKVTPPPRRQNEEVSISLDFTYPSLEESIPSKPAAQTPPASIEVDENIELISGQNERMGPLNISTPVEPVAASKSDVSPIIQPVPSIKNVPQIDRTKKPAVKLPEEHRIKSESTNHEQQSPQSGKVIPDRSTKPVVFSPTLMLTDEEKARIHAETALLMEKNKQEKELRERQQEEQKEKLRKEEQEQKAKKKQEAEENEITEKQQKAKEEMEKKESEQAKKEDKETSAKRGKEITGVKRQSKSEHETSDAKKSVEDRGKRCPTPEIQKKSTGDVPHTSVTGDSGSGKPFKIKGQPESGILRTGTFREDTDDTERNKAQREPLTRARSEEMGRIVPGLPSGWAKFLDPITGTFRYYHSPTNTVHMYPPEMAPSSAPPSTPPTHKAKPQIPAERDREPSKLKRSYSSPDITQAIQEEEKRKPTVTPTVNRENKPTCYPKAEISRLSASQIRNLNPVFGGSGPALTGLRNLGNTCYMNSILQCLCNAPHLADYFNRNCYQDDINRSNLLGHKGEVAEEFGIIMKALWTGQYRYISPKDFKITIGKINDQFAGYSQQDSQELLLFLMDGLHEDLNKADNRKRYKEENNDHLDDFKAAEHAWQKHKQLNESIIVALFQGQFKSTVQCLTCHKKSRTFEAFMYLSLPLASTSKCTLQDCLRLFSKEEKLTDNNRFYCSHCRARRDSLKKIEIWKLPPVLLVHLKRFSYDGRWKQKLQTSVDFPLENLDLSQYVIGPKNNLKKYNLFSVSNHYGGLDGGHYTAYCKNAARQRWFKFDDHEVSDISVSSVKSSAAYILFYTSLG
For orientation: Kd means the equilibrium constant for the complex coming apart. A low value points to higher affinity. B1 displayed a Kd in series [1] of 1480 nM.

B2: 14-3-3γ (natural protein, UniProt P61981 1-247, looked up)
chain: MVDREQLVQKARLAEQAERYDDMAAAMKNVTELNEPLSNEERNLLSVAYKNVVGARRSSWRVISSIEQKTSADGNEKKIEMVRAYREKIEKELEAVCQDVLSLLDNYLIKNCSETQYESKVFYLKMKGDYYRYLAEVATGEKRATVVESSEKAYSEAHEISKEHMQPTHPIRLGLALNYSVFYYEIQNAPEQACHLAKTAFDDAIAELDTLNEDSYKDSTLIMQLLRDNLTLWTSDQQDDDGGEGNN
The stoichiometry N is a count of units in the complex or per binding partner. With B2, in “SEC-MALLS”, the “stoichiometry N” value was determined as 2.

B3: USP8 Δ686–757 (FL USP8, a.a. 7-1110, entire WW-CD linker deleted) (enzyme)
chain: VPKELYLSSSLKDLNKKTEVKPEKISTKSYVHSALKIFKTAEECRLDRDEERAYVLYMKYVTVYNLIKKRPDFKQQQDYFHSILGPGNIKKAVEEAERLSESLKLRYEEAEVRKKLEEKDRQEEAQRLQQKRQETGREDGGTLAKGSLENVLDSKDKTQKSNGEKNEKCETKEKGAITAKELYTMMTDKNISLIIMDARRMQDYQDSCILHSLSVPEEAISPGVTASWIEAHLPDDSKDTWKKRGNVEYVVLLDWFSSAKDLQIGTTLRSLKDALFKWESKTVLRNEPLVLEGGYENWLLCYPQYTTNAKVTPPPRRQNEEVSISLDFTYPSLEESIPSKPAAQTPPASIEVDENIELISGQNERMGPLNISTPVEPVAASKSDVSPIIQPVPSIKNVPQIDRTKKPAVKLPEEHRIKSESTNHEQQSPQSGKVIPDRSTKPVVFSPTLMLTDEEKARIHAETALLMEKNKQEKELRERQQEEQKEKLRKEEQEQKAKKKQEAEENEITEKQQKAKEEMEKKESEQAKKEDKETSAKRGKEITGVKRQSKSEHETSDAKKSVEDRGKRCPTPEIQKKSTGDVPHTSVTGDSGSGKPFKIKGQPESGILRTGTFREDTDDTERNKAQREPLTRARSEEMGRIVPGLPSGWAKFLDPITGTFRYYHSPTNTVHMYPPEMAPSASQIRNLNPVFGGSGPALTGLRNLGNTCYMNSILQCLCNAPHLADYFNRNCYQDDINRSNLLGHKGEVAEEFGIIMKALWTGQYRYISPKDFKITIGKINDQFAGYSQQDSQELLLFLMDGLHEDLNKADNRKRYKEENNDHLDDFKAAEHAWQKHKQLNESIIVALFQGQFKSTVQCLTCHKKSRTFEAFMYLSLPLASTSKCTLQDCLRLFSKEEKLTDNNRFYCSHCRARRDSLKKIEIWKLPPVLLVHLKRFSYDGRWKQKLQTSVDFPLENLDLSQYVIGPKNNLKKYNLFSVSNHYGGLDGGHYTAYCKNAARQRWFKFDDHEVSDISVSSVKSSAAYILFYTSLG
In the case of B3, the Kd in series [1] is 367 nM.

B4: USP8 ΔWW (WW domain-deleted mutant of FL USP8, a.a. 7-1110) (enzyme)
chain: VPKELYLSSSLKDLNKKTEVKPEKISTKSYVHSALKIFKTAEECRLDRDEERAYVLYMKYVTVYNLIKKRPDFKQQQDYFHSILGPGNIKKAVEEAERLSESLKLRYEEAEVRKKLEEKDRQEEAQRLQQKRQETGREDGGTLAKGSLENVLDSKDKTQKSNGEKNEKCETKEKGAITAKELYTMMTDKNISLIIMDARRMQDYQDSCILHSLSVPEEAISPGVTASWIEAHLPDDSKDTWKKRGNVEYVVLLDWFSSAKDLQIGTTLRSLKDALFKWESKTVLRNEPLVLEGGYENWLLCYPQYTTNAKVTPPPRRQNEEVSISLDFTYPSLEESIPSKPAAQTPPASIEVDENIELISGQNERMGPLNISTPVEPVAASKSDVSPIIQPVPSIKNVPQIDRTKKPAVKLPEEHRIKSESTNHEQQSPQSGKVIPDRSTKPVVFSPTLMLTDEEKARIHAETALLMEKNKQEKELRERQQEEQKEKLRKEEQEQKAKKKQEAEENEITEKQQKAKEEMEKKESEQAKKEDKETSAKRGKEITGVKRQSKSEHETSDAKKSVEDRGKRCPTPEIQKKSTGDVPHTSVTGDSGSGKPFKIKGQPESGILRTGTFREDTDDTERNKAQREPLTRARSEEMSSAPPSTPPTHKAKPQIPAERDREPSKLKRSYSSPDITQAIQEEEKRKPTVTPTVNRENKPTCYPKAEISRLSASQIRNLNPVFGGSGPALTGLRNLGNTCYMNSILQCLCNAPHLADYFNRNCYQDDINRSNLLGHKGEVAEEFGIIMKALWTGQYRYISPKDFKITIGKINDQFAGYSQQDSQELLLFLMDGLHEDLNKADNRKRYKEENNDHLDDFKAAEHAWQKHKQLNESIIVALFQGQFKSTVQCLTCHKKSRTFEAFMYLSLPLASTSKCTLQDCLRLFSKEEKLTDNNRFYCSHCRARRDSLKKIEIWKLPPVLLVHLKRFSYDGRWKQKLQTSVDFPLENLDLSQYVIGPKNNLKKYNLFSVSNHYGGLDGGHYTAYCKNAARQRWFKFDDHEVSDISVSSVKSSAAYILFYTSLG
Regarding B4, in series [1], the Kd came out at 290 nM.
